# According to publication PMC8978939, “VHL-P138R and VHL-L163R Novel Variants: Mechanisms of VHL Pathogenicity Involving HIF-Dependent and HIF-Independent Actions” (Frontiers in Endocrinology, 2022):
# Columns and labels:
# VHL-P138R-Venus = target: T1, VHL-P138R-Venus (human, UniProt P40337 1-213, P138R); experiment: co-IP; GFP-Trap_A kit on 1 mg protein from 786-0 cell lines stably expressing VHL-Venus (WT, P138R, L163R) or GFP; Western blot for Elongin B and Elongin C; band ratios Elongin/pVHL normalised to WT set as 1; conditions: partners not purified
# T1 construct: von Hippel-Lindau protein (pVHL), human, patient variant P138R (CCA to CGA) made by site-directed mutagenesis of VHL-WT-Venus-Retro; Variant found in patients with VHL disease (type 2B); also called P138R VHL-Venus; P138R pVHL
# T1 sequence (P40337 whole entry P138R): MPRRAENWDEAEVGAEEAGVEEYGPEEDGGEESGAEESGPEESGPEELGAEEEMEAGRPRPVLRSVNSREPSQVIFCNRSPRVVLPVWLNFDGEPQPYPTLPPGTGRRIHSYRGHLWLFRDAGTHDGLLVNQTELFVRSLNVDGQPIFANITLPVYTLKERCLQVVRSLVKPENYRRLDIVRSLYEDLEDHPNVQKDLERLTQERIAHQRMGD
# VHL-L163R-Venus = target: T2, VHL-L163R-Venus (human, UniProt P40337 1-213, L163R); experiment: as above; conditions: partners not purified
# T2 construct: von Hippel-Lindau protein (pVHL), human, patient variant L163R (CTC to CGC) made by site-directed mutagenesis of VHL-WT-Venus-Retro; Variant found in patients with VHL disease (type 2C); also called L163R VHL-Venus; L163R pVHL
# T2 sequence (P40337 whole entry L163R): as the sequence (P40337 whole entry P138R) above, with R138P, L163R counted along it
binder,measurement,setting,value
"Elongin B (natural protein, human (endogenous in 786-0), UniProt Q15370 1-118, looked up, also called EloB; source: endogenous, 786-0 RCC cell lysate) MDVFLMIRRHKTTIFTDAKESSTVFELKRIVEGILKRPPDEQRLYKDDQLLDDGKTLGECGFTSQTARPQAPATVGLAFRADDTFEALCIEPFSSPPELPDVMKPQDSGSSANEQAVQ","ratio Elongin B/pVHL, normalised to WT pVHL set as 1",VHL-P138R-Venus,~0.6
same,"ratio Elongin B/pVHL, normalised to WT pVHL set as 1",VHL-L163R-Venus,0.25
